Legend:
[1] = biological target: T1, NTwt (wildtype N-terminal (NT) fragment of Euprosthenops australis major ampullate spidroin 1) (Euprosthenops australis); experiment: tryptophan fluorescence ratio 339/351 nm vs pH, 5 µM protein in 20 mM HEPES/20 mM MES; homodimerization; settings: remark: other sources report otherwise
T1 chain: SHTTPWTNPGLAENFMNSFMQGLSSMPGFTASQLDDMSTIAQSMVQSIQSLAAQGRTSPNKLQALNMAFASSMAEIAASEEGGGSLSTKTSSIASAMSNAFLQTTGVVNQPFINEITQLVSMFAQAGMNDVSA

[2] = biological target: the molecule itself; experiment: tryptophan fluorescence ratio 339/351 nm vs pH (self-association / dimerization)
Protocol: Fluorescence emission spectra for NT_{D40K/K65D} (SEQ ID NO: 2) and NTwt (SEQ ID NO: 11), respectively, were measured on a spectrofluorometer (Tecan Safire 2) using Costar® black polystyrene assay plates with 96 flat bottom wells. The proteins were diluted to a concentration of 5 μM in 20 mM HEPES/20 mM MES adjusted to pH 5.6-8.0 in steps of 0.4 pH units. After exciting the samples at 280 nm (5 nm bandwidth), emission spectra were recorded in 1 nm steps between 300-400 nm (10 nm bandwidth). The tryptophan fluorescence ratio was calculated from the intensities at 339 nm and 351 nm and plotted as a function of pH. […]
The pH-dependent monomer-dimer equilibrium of NT can be monitored through the fluorescence shift of a single tryptophan (Trp) residue that becomes more exposed in the dimer. FIG. 2 is a graph illustrating the monomer-dimer equilibrium measured with Trp fluorescence. Trp fluorescence spectra between 300 and 400 nm were measured in 20 mM HEPES/20 mM MES buffer and the ratio at 339/351 nm (wavelengths corresponding to monomer and dimer conformations, respectively) was calculated and plotted as a function of pH for NTwt (dotted line) and NT_{D40K/K65D} (filled line). The ratio of fluorescence at 339 and 351 nm as a function of pH gives a sigmoidal plot for NTwt with a pKa of dimerization at pH 6.5. […]

Binder | pKa of dimerization [1] | binding result [2]
NTwt (wildtype N-terminal (NT) fragment of Euprosthenops australis major ampullate spidroin 1) (protein) SHTTPWTNPGLAENFMNSFMQGLSSMPGFTASQLDDMSTIAQSMVQSIQSLAAQGRTSPNKLQALNMAFASSMAEIAASEEGGGSLSTKTSSIASAMSNAFLQTTGVVNQPFINEITQLVSMFAQAGMNDVSA | 6.5 pH | 
NTD40K/K65D (charge-reversed double mutant of the NT fragment) (other, Expressed in E. coli BL21 (DE3); also called charge-reversed NT mutant; NT mutant) SHTTPWTNPGLAENFMNSFMQGLSSMPGFTASQLDKMSTIAQSMVQSIQSLAAQGRTSPNDLQALNMAFASSMAEIAASEEGGGSLSTKTSSIASAMSNAFLQTTGVVNQPFINEITQLVSMFAQAGMNDVSA |  | no binding (tested: 5 µM protein, pH 5.6-8.0)
